Experimental findings from US20080279856A1, “Inhibition of Bradykinin Release” (Novo Nordisk Pharmaceuticals, Inc., priority 1999, published 2008) are described below.

A value given as a limit tells only on which side of the number the result lay.

Assay [1] concerns EC monolayers (HUVEC or BAEC). The assay can be described thus: Albumin clearance (Evans blue dye-conjugated albumin) across EC monolayers after HBP stimulation. The class given is cell-based, human, bovine. The note with it: HBP 75 μg/ml; over a 60 min period. Here is the method: Human umbilical vein endothelial cells (HUVEC) are isolated from fresh umbilical cords as described by Jaffe et al., 1973, J. Clin. Invest. 52:2745-2756), and bovine aorta endothelial cells (BAEC) are isolated according to the method of Booyse et al., 1975, Thromb. Diath. Haemmorrh. 24:825-839) with a few modifications. Briefly, the lumen of the umbilical vein or bovine aorta is incubated with a 0.25% collagenase solution for 10 min, and detached endothelial cells washed out with PBS. Harvested cells are pelleted and resuspended in culture medium, seeded in tissue culture flasks and incubated under standard conditions. Medium is changed every 48 h until cultures have reached confluence (3-5 days). […]
Cultured EC are detached by brief (2 min) trypsin-EDTA treatment (0.25% trypsin/0.01% EDTA) and replated onto either 0.2 μm pore size Anopore inorganic membrane or 3.0 μm pore size polycarbonate filters (Tissue Culture inserts, 10 mm; NUNC, Roskilde, Denmark). […] The ECs are grown to confluent monolayers, as assessed by daily microscopic observation and measurement of the electrical resistance across the monolayer.
Evans blue dye-conjugated albumin (EBA) is used as a marker for macromolecular permeability of the EC monolayers. […] In experiments where albumin permeability is analyzed, the culture medium in the upper compartment is exchanged for medium containing EBA. […]

Assay [2] deals with hamster cheek pouch microvasculature. The assay can be described thus: Intravital microscopy of hamster cheek pouch microvessel permeability. Type of assay: in vivo, Syrian golden hamsters. The note with it: topical HBP 75 μg/ml. An excerpt: In order to study the effect of PMN secretion products on microvessel permeability in vivo, intravital microscopy of the hamster cheek pouch microcirculation is applied. As previously described in detail (Raud & Lindbom, 1994, Immunology of the Microcirculation, Academic Press, 1994, chapter 7), the left cheek pouch of anaesthetized Syrian golden hamsters is everted and prepared for microscopic observation under continuous superfusion with a bicarbonate buffer maintaining physiological levels of temperature, pH and gas tensions. FITC-conjugated dextran (MW: 150.000) injected i.v. (250 mg/kg body weight) is used as plasma tracer to permit visualization of changes in vascular permeability to macromolecules. The microvasculature in the exposed cheek pouch is observed under low magnification in fluorescent light with a Leitz Orthoplan microscope and recorded on video. After control recordings, superfusion is stopped and 1 ml of medium containing CD18 cross-linking-evoked PMN secretion at 37° C. is topically applied to the cheek pouch. In parallel experiments, anti-CD18-treated PMN medium is not subjected to cross-linking is used.

B1: HBP: Native human heparin-binding protein, mature form with the amino acid sequence SEQ ID NO:1 (protein, listed as Homo sapiens)
chain: IVGGRKARPRQFPFLASIQNQGRHFCGGALIHARFVMTAASCFQSQNPGVSTVVLGAYDLRRRERQSRQTFSISSMSENGYDPQQNLNDLMLLQLDREANLTSSVTILPLPLQNATVEAGTRCQVAGWGSQRSGGRLSRFPRFVNVTVTPEDQCRPNNVCTGVLTRRGGICNGDGGTPLVCEGLAHGVASFSLGPCGRGPDFFTRVALFRDWIDGVLNNPGPGPA
B1: the “net albumin clearance volume” value in assay [1] amounted to 20.4 ± 3.4 µL. In assay [2], the “time of maximum leakage response after challenge” value lay within 7 to 10 min, the “time to complete disappearance of leakage” value is given as at most 30 min and the “time to visible leaky spots of fluorescent tracer” value is at most 2 min.
